Source: patent publication US20220357317A1 (NATIONAL UNIVERSITY COMORATION HOKKAIDO UNIVERSITY, published 2022)

T1: reduced form of HD5 (HD5 without any intramolecular disulfide bond) (human, no intramolecular disulfide bonds (reduced form))
T1 construct: Chemically synthesized mature HD5 before the oxidation treatment; also called r-HD5
T1 peptide: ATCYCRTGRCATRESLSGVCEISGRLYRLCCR

T2: oxidized form of human α-defensin HD5 (HD5 with three intramolecular disulfide bonds) (human, six cysteine residues form three intramolecular disulfide bonds (oxidized form))
T2 construct: Chemically synthesized mature HD5 (32 amino acids), oxidized and purified by reverse-phase chromatography; confirmed by MALDI-TOF MS; also called ox-HD5; DEFA5
T2 peptide: T1 peptide

B1: monoclonal antibody 39E-7 (antibody, V domains shown)
VH: EVQLQQSGPELVKPGASVKISCKASGYSFTGSYMNWVKQSPEKSLEWIGEINPSTGGTTHNQKFKAKATLTVDTSSSTFYMQLKSLTSEDSAVYYCARDYAGSYDWYFDVWGAGTTVTVSS
VL: DIKMTQSPSSMYASLGERVTITCKASQDINSYLSWFQQKPGKSPKTLIYRANRLVDGVPSRFSGSGSGQDYSLTISSLEYEDMGIYYCLQYDEFPYTFGGGTKLEII
notes: constant regions are not; also called detection antibody 39E-7; anti-ox-HD5 monoclonal antibody according to b)
B2: monoclonal antibody 12-1 (antibody, V domains shown)
VH: QVQLQQSGAELARPGASVKLSCKASGYTFTSYGISWVKQRTGQGLEWIGEIYPRSGNTYYNEKFKGKATLTADKSSSTAYMQLSSLTSEDSAVYFCARDYDGFPYFDYWGQGTTLTVSS
VL: DIVLTQSPASLAVSLGQRATISCRASESVDSYGYSFMHWYQQKPGQPPKLLIYRASNLESGIPARFSGSGSRTDFTLTINPVEADDVATYYCQQSNEDPRTFGGGTKLEIK
notes: constant regions are not; Immobilized on the plate as capture antibody in the sandwich ELISA; also called capture antibody 12-1; anti-ox-HD5 monoclonal antibody according to a)

Tests used:
[1] = target: T1, reduced form of HD5 (HD5 without any …); assay: sandwich ELISA, capture 12-1 (1 mg/ml) with detection 39E-7 (0.5 mg/ml), antigen 0 to 60 ng/ml
[2] = target: T2, oxidized form of human α-defensin HD5 …; assay: sandwich ELISA, capture 12-1 (1 mg/ml) with detection 39E-7 (0.5 mg/ml)
[3] = target: T2, oxidized form of human α-defensin HD5 …; assay: indirect ELISA screening, plate coated with 1 µg/ml ox-HD5, hybridoma supernatant
Method: Autoimmune disease mice (C3H/HeJJmsSlc-lpr/lpr available from Japan SLC, Inc.) injected with an adjuvant according to a conventional method were immunized with ox-HD5 by three times of intra-abdominal injection (0.2 mg each time). Later, cells were collected from the spleen of the immunized mice according to a conventional method, and then fused with a mouse myeloma cell line P3U1 with use of 50% polyethylene glycol 1500 (Sigma-Aldrich Co. LLC) to prepare hybridomas. Each hybridoma clone was screened by indirect ELISA, and subcloned four times by a limiting dilution method.
The indirect ELISA was carried out by the following procedures. Wells of a flat-bottomed microtiter plate (Nunc) were coated with 1 μg/ml of ox-HD5 dissolved in Ca²⁺/Mg²⁺-free phosphate buffered saline (PBS), and then incubated overnight at 4° C. After three times of washing with PBS containing 0.1% Tween 20 (PBS-T), culture supernatant from each hybridoma clone was added to the wells, and incubated at 37° C. for 1 hour. […] 100 μL of 3,3′,5,5′-tetramethylbenzidine (TMB) substrate buffer (KPL) was added to each well, then the plate was incubated at 25° C. for 30 minutes, and then absorbance at 405 nm was measured with use of a microplate reader Multiscan FC (Thermo Scientific).

Row | Binder | binding result [1] | binding result [2] | binding result [3]
1 | B1 | binds | binds | 
2 | B2 | binds |  | binds
